Reference: US7087420B1, “Microbial β-glucuronidase genes, gene products and uses thereof” (Cambia, priority 1997, dated 2006)

Substrate: O=C(O)[C@H]1O[C@@H](Oc2ccc([N+](=O)[O-])cc2)[C@H](O)[C@@H](O)[C@@H]1O
Experiment: Kinetics of pNPG hydrolysis by E. coli GUS (spectrophotometric p-nitrophenol release)
Format: biochemical, Escherichia coli
Conditions: other: E. coli GUS, substrate pNPG, 37° C., pH 7.0
Description: One such substrate is p-nitrophenyl β-D-glucuronide (pNPG), which when cleaved by GUS releases the chromophore p-nitrophenol. At a pH greater than its pKa (approximately 7.15), the ionized chromophore absorbs light at 400–420 nm, therefore appears in the yellow range of visible light. Briefly, reactions are performed in 50 mM Na3PO4 pH 7.0, 10 mM 2-ME, 1 mM EDTA, 1 mM pNPG, and 0.1% Triton® X-100 at 37° C. The reactions are terminated by the addition of 0.4 ml of 2-amino-2-methylpropanediol, and absorbance measured at 415 nm against a substrate blank. Under these conditions, the molar extinction coefficient of p-nitrophenol is assumed to be 14,000: One unit is defined as the amount of enzyme that produces 1 nmole of product/min at 37° C.
Turnover number is calculated as nmoles of pNPG converted to p-nitrophenol per min per μg of purified protein.

B1: E. coli β-glucuronidase (E. coli GUS, GUS^Eco), wild type, SEQ ID NO: 23 (Escherichia coli K-12) (protein)
chain: MLRPVETPTREIKKLDGLWAFSLDRENCGIDQRWWESALQESRAIAVPGSFNDQFADADIRNYAGNVWYQREVFIPKGWAGQRIVLRFDAVTHYGKVWVNNQEVMEHQGGYTPFEADVTPYVIAGKSVRITVCVNNELNWQTIPPGMVITDENGKKKQSYFHDFFNYAGIHRSVMLYTTPNTWVDDITVVTHVAQDCNHASVDWQVVANGDVSVELRDADQQVVATGQGTSGTLQVVNPHLWQPGEGYLYELCVTAKSQTECDIYPLRVGIRSVAVKGEQFLINHKPFYFTGFGRHEDADLRGKGFDNVLMVHDHALMDWIGANSYRTSHYPYAEEMLDWADEHGIVVIDETAAVGFNLSLGIGFEAGNKPKELYSEEAVNGETQQAHLQAIKELIARDKNHPSVVMWSIANEPDTRPQGAREYFAPLAEATRKLDPTRPITCVNVMFCDAHTDTISDLFDVLCLNRYYGWYVQSGDLETAEKVLEKELLAWQEKLHQPIIITEYGVDTLAGLHSMYTDMWSEEYQCAWLDMYHRVFDRVSAVVGEQVWNFADFATSQGILRVGGNKKGIFTRDRKPKSAAFLLQKRWTGMNFGEKPQQGGKQ
notes: pNPG substrate; functional homotetramer
B1 gave a Km of 120 μM pNPG μM and a Vmax of 80 nmol/min/µg.
